Molecular target: the molecule itself
Test: DSG crosslinking of whole cell lysates; immunoprecipitation and immunoblot with anti-Stat6 serum
Procedure: Effect of Stat6c on endogenous Stat6 dimerization. To elucidate the molecular mechanism of Stat6c's potent transcriptional […], several possibilities were considered. Because endogenous Stat6 tyrosine phosphorylation is only partly diminished by Stat6c, inhibition of IL-4-induced endogenous Stat6 association with IL-4Rα or JAK activation appeared unlikely. […] Therefore, crosslinking studies were performed to investigate whether Stat6c might effect endogenous Stat6 dimerization. Whole cell lysates from IL-4-treated FDC-P2 cells or Stat6 and Stat6c transfectants were incubated with disuccinimidyl glutarate (DSG).

B1: endogenous murine Stat6 (other, UniProt P52633 1-837, looked up)
chain: MSLWGLISKMSPEKLQRLYVDFPQRLRHLLADWLESQPWEFLVGSDAFCYNMASALLSATVQRLQATAGEQGKGNSILPHISTLESIYQRDPLKLVATIRQILQGEKKAVIEEFRHLPGPFHRKQEELKFTTALGRLQHRVRETRLLRESLQQGAKTGQVSLQNLIDPPVNGPGPSEDLATMLQGTVGDLEATQALVLKRIQIWKRQQQLAGNGTPFEESLAGLQERCESLVEIYSQLQQEIGAASGELEPKTRASLISRLDEVLRTLVTSSFLVEKQPPQVLKTQTKFQAGVRFLLGLQFLGTSAKPPMVRADMVTEKQARELSLAQGPGTGVESTGEIMNNTVPLENSIPSNCCSALFKNLLLKKIKRCERKGTESVTEEKCAVLFSTSFTLGPNKLLIQLQALSLPLVVIVHGNQDNNAKATILWDNAFSEMDRVPFVVAERVPWEKMCETLNLKFMAEVGTSRGLLPEHFLFLAQKIFNDNSLSVEAFQHRCVSWSQFNKEILLGRGFTFWQWFDGVLDLTKRCLRSYWSDRLIIGFISKQYVTSLLLNEPDGTFLLRFSDSEIGGITIAHVIRGQDGSSQIENIQPFSAKDLSIRSLGDRIRDLAQLKNLYPKKPKDEAFRSHYKPEQMGKDGRGYVSTTIKMTVERDQPLPTPEPQMPAMVPPYDLGMAPDASMQLSSDMGYPPQSIHSFQSLEESMSVLPSFQEPHLQMPPNMSQITMPFDQPHPQGLLQCQSQEHAVSSPEPMLCSDVTMVEDSCLTQPVGGFPQGTWVSEDMYPPLMPPTEQDLTKLLLENQGEAGGSLGSQPLLQPSPYGQSGISLSHLDLRTNPSW
notes: Endogenous protein in FDC-P2 whole cell lysates; also called endogenous Stat6
binding result: binds

— patent US6368828 (US Dept. of Health and Human Services, dated 2002)
